± gives the uncertainty stated by the source.
B1: Pre-mRNA-processing factor 40 homolog B, residues 274 to 332; numbered along this chain, Q6NWY9 (parent)
chain: SNREKAKQAFKELLRDKAVPSNASWEQAMKMVVTDPRYSALPKLSEKKQAFNAYKAQRE

Variants of: B1
Experiment: abundance fitness (aPCA) (normalised: wild type 0, dead -1); higher = more abundant; growth selection in yeast, the domain comes from the species named
Conditions: Homo sapiens

Abundance fitness, by site and new letter:
S1: A -0.015 ± 0.15; C 0.042 ± 0.16; D -0.357 ± 0.48; E -0.206 ± 0.24; F 0.15 ± 0.27; G 0.07 ± 0.087; I -0.075 ± 0.28; K 0.135 ± 0.18; L 0.045 ± 0.18; M -0.364 ± 0.38; N -0.042 ± 0.18; P -0.478 ± 0.25; R -0.084 ± 0.13; T -0.032 ± 0.15; V 0.13 ± 0.14; W -0.417 ± 0.092; Y 0.089 ± 0.23
N2: A -0.406 ± 0.12; C -0.547 ± 0.15; D 0.033 ± 0.18; E -0.089 ± 0.1; G -0.207 ± 0.069; H -0.83 ± 0.2; I -0.46 ± 0.23; K -0.139 ± 0.11; L -0.581 ± 0.12; M -0.393 ± 0.12; P -0.497 ± 0.17; Q 0.037 ± 0.095; R -0.324 ± 0.073; S -0.208 ± 0.09; T 0.027 ± 0.11; V -0.849 ± 0.16; W -0.276 ± 0.12; Y -1.01 ± 0.34
R3: A -0.409 ± 0.1; C 0.043 ± 0.12; D 0.036 ± 0.19; E -0.047 ± 0.11; F -0.27 ± 0.17; G -0.084 ± 0.072; H -0.281 ± 0.22; I 0.06 ± 0.16; K 0.308 ± 0.12; L 0.044 ± 0.089; M 0.07 ± 0.1; N 0.221 ± 0.23; P 0.034 ± 0.082; S 0.076 ± 0.089; T -0.062 ± 0.1; W -0.251 ± 0.11
E4: A -1.5 ± 0.17; C -0.668 ± 0.17; D -0.01 ± 0.099; F -0.294 ± 0.14; G -0.374 ± 0.054; H -0.082 ± 0.23; I -0.025 ± 0.18; K -0.368 ± 0.11; L -0.23 ± 0.081; M -0.41 ± 0.1; N -0.074 ± 0.14; P -0.566 ± 0.13; Q -0.233 ± 0.084; R -0.45 ± 0.064; S -0.156 ± 0.071; T -0.433 ± 0.1; V -1.08 ± 0.093; W -0.642 ± 0.11; Y -0.457 ± 0.21
K5: C -0.134 ± 0.088; D -0.012 ± 0.12; E -0.049 ± 0.09; G -0.187 ± 0.066; H -0.203 ± 0.14; I -0.171 ± 0.19; L -0.177 ± 0.072; M -0.024 ± 0.096; N -0.081 ± 0.17; P -0.409 ± 0.11; Q -0.07 ± 0.14; R -0.193 ± 0.057; S -0.055 ± 0.071; T -0.042 ± 0.095; V -0.063 ± 0.066; W -0.553 ± 0.081; Y -0.179 ± 0.14
A6: D -0.002 ± 0.09; E 0.172 ± 0.11; G -0.05 ± 0.055; H -0.201 ± 0.16; I -0.153 ± 0.16; K -0.243 ± 0.14; L -0.566 ± 0.077; M -0.539 ± 0.13; Q 0.009 ± 0.12; R -0.381 ± 0.059; S -0.194 ± 0.084; T -0.394 ± 0.13; V -0.331 ± 0.072; W -0.948 ± 0.13; Y -0.56 ± 0.13
K7: A 0.027 ± 0.064; C -0.276 ± 0.12; E 0.135 ± 0.08; F 0.104 ± 0.13; G -0.319 ± 0.054; H 0.065 ± 0.12; I -0.055 ± 0.17; L 0.065 ± 0.072; M 0.144 ± 0.094; N -0.074 ± 0.1; P -0.587 ± 0.087; Q 0.062 ± 0.11; R -0.174 ± 0.055; S -0.005 ± 0.066; T 0.042 ± 0.083; V 0.124 ± 0.062; Y -0.016 ± 0.15
Q8: A -0.145 ± 0.069; C -0.386 ± 0.14; E 0.003 ± 0.085; F -0.412 ± 0.21; G -0.301 ± 0.057; H -0.341 ± 0.21; I -0.069 ± 0.18; L -0.108 ± 0.089; M -0.416 ± 0.15; N -0.585 ± 0.15; P -0.42 ± 0.11; R -0.241 ± 0.058; S -0.362 ± 0.08; T -0.065 ± 0.14; W -0.581 ± 0.11; Y -0.49 ± 0.24
A9: C -0.094 ± 0.1; D 0.09 ± 0.12; E -0.038 ± 0.088; F -0.563 ± 0.35; G -0.292 ± 0.064; H -0.458 ± 0.13; I 0.081 ± 0.13; K -0.196 ± 0.089; L -0.092 ± 0.088; M -0.119 ± 0.12; N -0.279 ± 0.14; P -0.536 ± 0.11; Q -0.041 ± 0.13; R -0.364 ± 0.06; S -0.106 ± 0.1; T 0.117 ± 0.11; V 0.003 ± 0.077; W -0.72 ± 0.096; Y -0.417 ± 0.21
F10: C -0.611 ± 0.12; D -0.22 ± 0.13; E -0.067 ± 0.087; G -0.277 ± 0.059; H -0.132 ± 0.14; I -0.25 ± 0.22; K -0.318 ± 0.12; L -0.424 ± 0.11; M -0.4 ± 0.11; P -0.177 ± 0.097; R -0.332 ± 0.064; S -0.254 ± 0.072; T -0.048 ± 0.1

Reference: the Human Domainome abundance scans (Beltran et al. 2025)
